Assay results: paper PMC2714593, “Insights into the role of Val45 and Gln182 of Escherichia coli MutY in DNA substrate binding and specificity”
Substitutions are numbered along the chain they refer to.

Key:
[1] = target: T1, EcMutY Q182L (Escherichia coli, UniProt P17802 1-350, Q182L); assay: EMSA; 20 mM Tris-HCl pH 7.6, 80 mM NaCl, 1 mM DTT, 1 mM EDTA, 2.9% glycerol, 20 ng poly dI/dC per 20 ul, 0.09 nM labeled DNA, 30 min at 30 C; 4% PAGE in TBE; details: protein: recombinant; label: 5'-32P on X strand; blunt; T/G mismatch at strand 1 position 22
T1 sequence: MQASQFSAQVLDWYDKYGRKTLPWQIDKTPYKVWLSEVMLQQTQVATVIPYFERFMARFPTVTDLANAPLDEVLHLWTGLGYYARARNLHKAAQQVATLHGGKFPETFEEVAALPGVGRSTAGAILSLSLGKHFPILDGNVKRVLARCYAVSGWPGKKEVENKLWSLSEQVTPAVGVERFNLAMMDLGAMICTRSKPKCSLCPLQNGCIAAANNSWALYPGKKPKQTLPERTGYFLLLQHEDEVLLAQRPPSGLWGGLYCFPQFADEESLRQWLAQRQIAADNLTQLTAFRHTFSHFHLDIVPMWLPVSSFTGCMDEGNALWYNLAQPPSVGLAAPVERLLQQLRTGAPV

[2] = target: T2, EcMutY V45A (Escherichia coli, UniProt P17802 1-350, V45A); assay: as above; details: protein: recombinant; label: 5'-32P on X strand; blunt; T/G mismatch at strand 1 position 22
T2 sequence: T1 sequence with V45A, L182Q

B1: T/G 44-mer (dsDNA)
DNA 1: AATTGGGCTCCTCGAGGAATTTGCCTTCTGCAGGCATGCCCCGG
DNA 2: CCGGGGCATGCCTGCAGAAGGCGAATTCCTCGAGGAGCCCAATT
Question: Which Kd [1] does the source give for B1 here?
Answer: 0.043 ± 0.014 nM

Question: And the Kd [2]?
Answer: 0.011 ± 0.004 nM
